# Test results as given in the RNAGym collection of RNA variant scans (doi:10.1101/gr.219683.116).
# B1: mRNA-splicing (parent)
# chain: AGUUGCUGCUGGGAGCUCCAGCACAGUGAAAUGGACAGAAGGGCAGAGCAA
# Variants of: B1
# Experiment: exon inclusion enrichment index; higher = more inclusion; WT1 exon 5 minigene, HEK293
row,Variant,exon inclusion enrichment index
1,G2U U3G G5C C6A U7C G8A U10A,0.503
2,U3G U4A C6A U7A C9A U10A,0.213
3,U3C U4C G5C C6U G8C C9U U10C,0.521
4,U4A G5A C6G U7G C9A,0.0163
5,U3A U4G C6A U7A C9A U10A,0.245
6,U3C U4G G5C C6G U7C U10C,1.31
7,U3G U4A G5A C6U U7A G8U C9A,0.0777
8,U3G U4G G5A U7C G8A U10C,1.93
9,U3A U4C,0.355
10,U3A U4G,0.0422
11,U3A U4A,0.0787
12,U4A G5A C6G U7C U10C,1.18
13,U3A U4C G5A C6G U7G C9A,0.0761
14,U3G G5C C6U G8C C9U U10C,0.696
15,U4A G5C C6A U7A C9A U10A,0.526
16,G2U U3G G5A U7C G8A U10C,4.12
17,U3G U4A G5C C6U G8C C9U U10C,0.91
18,U4A C6G U7C U10C,0.262
19,U3A U4C C6A U7C C9A U10C,4.11
20,U3C C6A U7C C9A U10C,3.44
21,U3C G5A C6U U7A G8U C9A,0.098
22,U3C U4C G5A U7C G8A U10C,2.69
23,U3G U4C C6A U7A C9A U10A,1.04
24,U3A U4C C6A U7A C9A U10A,1.27

row,Variant,exon inclusion enrichment index
1,U3G G5C C6A U7C G8A U10A,0.043
2,U4A G5A G8U C9U,0.144
3,U3A U4G G5C C6A U7C G8A U10A,0.0901
4,U3A U4A G5C C6A U7C G8A U10A,0.0877
5,U3G U4G C6A U7A C9A U10A,0.0489
6,U3C U4C G5C C6G U7C U10C,2.61
7,U3C U4G C6A U7C C9A U10C,2.89
8,U3C G5A U7C G8A U10C,1.28
9,U3G U4A C6A U7C C9A U10C,1.52
10,G2U U3C C6A U7C C9A U10C,4.67
11,U3G U4G G5C C6G U7C U10C,0.836
12,U3C U4C C6A U7C C9A U10C,4.17
13,U3C U4G G5A U7C G8A U10C,2.97
14,U4A C6U U7A G8U C9A,0.00525
15,G2U U3G G5A C6U U7A G8U C9A,0.348
16,G2U U3G C6A U7C C9A U10C,4.84
17,U3A C6A U7C C9A U10C,3.37
18,U3A U4G G5A C6G U7G C9A,0.018
19,G2U U3G,0.359
20,U3C U4A G5A U7C G8A U10C,2.12
21,U3G U4C G5A U7C G8A U10C,2.37
22,U3C U4A C6A U7A C9A U10A,0.528
23,G2U U3C G5A C6U U7A G8U C9A,0.557
24,U3A U4C G5A U7C G8A U10C,2.99

row,Variant,exon inclusion enrichment index
1,U3C U4A,0.0261
2,U3C U4G,0.0956
3,U3C U4C,0.208
4,U3G U4C G5A C6G U7G C9A,0.0394
5,G2U U3C G5A C6G U7G C9A,0.0791
6,U3C,0.011
7,U3A,0.364
8,U3G,0.0194
9,U3C U4A G5A C6U U7A G8U C9A,0.17
10,U3C C6A U7A C9A U10A,1.1
11,U3G U4C G5A C6U U7A G8U C9A,0.122
12,U3A G5U G8U C9U,0.513
13,U3G G5A C6G U7G C9A,0.0125
14,G2U U3C G5A U7C G8A U10C,4.11
15,U3C G5C C6G U7C U10C,1.22
16,U3G U4A G5C C6A U7C G8A U10A,0.0657
17,U3C U4A G5A C6G U7G C9A,0.0853
18,U3G U4G G5A C6G U7G C9A,0.00966
19,U3A U4A G5A U7C G8A U10C,2.15
20,U3A U4C G5C C6G U7C U10C,3.45
21,U3C U4G C6A U7A C9A U10A,0.667
22,U3A U4G G5A C6U U7A G8U C9A,0.0692
23,U4A C6A U7C G8A U10A,0.0102
24,U4A G5A C6A U7C C9A U10C,2.23

row,Variant,exon inclusion enrichment index
1,U3G U4G G5U G8U C9U,0.0141
2,U3C U4C G5U G8U C9U,0.335
3,U3C G5C C6A U7C G8A U10A,0.0284
4,U3C U4G G5A C6U U7A G8U C9A,0.312
5,U3G G5A C6U U7A G8U C9A,0.0113
6,U3G U4C G5U G8U C9U,0.0275
7,U4A C6A U7C C9A U10C,1.35
8,U3A U4A G5U G8U C9U,0.296
9,U3G U4C G5C C6A U7C G8A U10A,0.139
10,U3A U4G G5A U7C G8A U10C,3.06
11,U4A G5C G8U C9U,0.718
12,U3C U4C G5A C6G U7G C9A,0.127
13,U4A G5A U7C G8A U10C,2
14,U3A U4G G5U G8U C9U,0.143
15,U3A G5A U7C G8A U10C,3.2
16,U3A G5C C6A U7C G8A U10A,0.475
17,U3C G5U G8U C9U,0.0225
18,G2U U3C G5C C6U G8C C9U U10C,3.63
19,U3A U4C G5C C6U G8C C9U U10C,2.23
20,G2U U3G C6A U7A C9A U10A,2.07
21,U3G U4A G5A U7C G8A U10C,2.25
22,U3G U4G,0.00805
23,U3G U4A,0.0184
24,U3G U4C,0.16

row,Variant,exon inclusion enrichment index
1,U4A C6U G8C C9U U10C,0.0827
2,U3C U4C G5A C6U U7A G8U C9A,0.481
3,U4A G5C U7C G8A U10C,2.34
4,U3G U4G G5C C6A U7C G8A U10A,0.0147
5,U3A U4C G5C C6A U7C G8A U10A,0.389
6,G2U U3G G5A C6G U7G C9A,0.0222
7,U3A U4C G5U G8U C9U,0.407
8,U3A G5A C6G U7G C9A,0.0155
9,U3C U4G G5C C6U G8C C9U U10C,1.28
10,U3C U4A C6A U7C C9A U10C,2.21
11,G2U U3G G5C C6U G8C C9U U10C,3.99
12,U3A U4A C6A U7C C9A U10C,1.08
13,U3G U4A G5U G8U C9U,0.0683
14,G2U U3G G5C C6G U7C U10C,5.1
15,U3G U4C G5C C6U G8C C9U U10C,1.03
16,U3G U4G G5C C6U G8C C9U U10C,0.152
17,U4A G5C C6G U7C U10C,2.75
18,U4A G5C C6A U7C G8A U10A,0.0584
19,U3C U4G G5A C6G U7G C9A,0.106
20,U3A C6A U7A C9A U10A,0.664
21,U3A G5C C6U G8C C9U U10C,2.74
22,U4A G5U,0.0569
23,U4A G5C,0.183
24,U4A G5A,0.00706

row,Variant,exon inclusion enrichment index
1,U4A G5A C6A U7C G8A U10A,0.0681
2,U3A U4G G5C C6U G8C C9U U10C,0.155
3,U3C U4G G5C C6A U7C G8A U10A,0.239
4,U3A G5C C6G U7C U10C,4.21
5,U3C U4C C6A U7A C9A U10A,1.44
6,U3C G5C C6U G8C C9U U10C,0.338
7,G2U U3G G5U G8U C9U,0.724
8,G2U U3C G5C C6G U7C U10C,5.85
9,U3A G5A C6U U7A G8U C9A,0.265
10,U4A G5C C6G U7G C9A,0.594
11,U3C U4A G5C C6U G8C C9U U10C,1.61
12,U4A G5C C6U G8C C9U U10C,1.68
13,U3A U4A G5A C6G U7G C9A,0.0117
14,U3C U4A G5U G8U C9U,0.356
15,U3A U4A G5C C6G U7C U10C,3.05
16,G2U U3C G5C C6A U7C G8A U10A,0.619
17,U4A G5C C6A U7C C9A U10C,2.5
18,U3A U4G G5C C6G U7C U10C,1.31
19,U3G U4A G5A C6G U7G C9A,0.0126
20,U4A G5A C6U G8C C9U U10C,0.574
21,U3G C6A U7C C9A U10C,0.785
22,U3C U4A G5C C6A U7C G8A U10A,0.0745
23,U3G U4G G5A C6U U7A G8U C9A,0.0433
24,U3G U4A G5C C6G U7C U10C,2.08

row,Variant,exon inclusion enrichment index
1,U3G U4C C6A U7C C9A U10C,3.64
2,U3A U4A G5A C6U U7A G8U C9A,0.0823
3,U4A G5A C6A U7A C9A U10A,0.0853
4,U3G G5U G8U C9U,0.0452
5,U4A,0.00347
6,U3C U4C G5C C6A U7C G8A U10A,0.144
7,U4A C6G U7G C9A,0.00639
8,U4A G5A C6U U7A G8U C9A,0.0542
9,U3G C6A U7A C9A U10A,0.238
10,U3C G5A C6G U7G C9A,0.00112
11,U3A U4A C6A U7A C9A U10A,0.441
12,U3C U4G G5U G8U C9U,0.61
13,G2U U3C G5U G8U C9U,0.965
14,U3A U4C G5A C6U U7A G8U C9A,0.3
15,U3G U4C G5C C6G U7C U10C,2.03
16,U4A C6A U7A C9A U10A,0.122
17,U3G G5C C6G U7C U10C,1.32
18,U3A U4A G5C C6U G8C C9U U10C,1.8
19,U4A G5C C6U U7A G8U C9A,0.177
20,U3G U4G C6A U7C C9A U10C,1.23
21,U3G G5A U7C G8A U10C,0.68
22,U3A U4G C6A U7C C9A U10C,1.54
23,U3C U4A G5C C6G U7C U10C,2.55
